The text below walks through data of article PMC6053351, “Structural and biochemical insights into human zinc finger protein AEBP2 reveals interactions with RBBP4”.

This series addresses AEBP2 ZF1-3 (Homo sapiens, UniProt Q6ZN18 258-357). The series can be described thus: fluorescence polarization; FPA with dsDNA: 25 mM Tris pH 7.4, 150 mM salt (salt identity and rest truncated in material), 50 nM FAM-DNA, 200 ul; G3A4 buffer and temperature not given in material. The note with it: protein: recombinant, tags: His6. (Fluorescence polarisation rises when a labelled molecule tumbles more slowly, as on binding a larger partner.)

[1] abbreviates: label: 5'-FAM on sense strand, blunt.

AEBP2 ZF1-3, sequence (Q6ZN18 258-357): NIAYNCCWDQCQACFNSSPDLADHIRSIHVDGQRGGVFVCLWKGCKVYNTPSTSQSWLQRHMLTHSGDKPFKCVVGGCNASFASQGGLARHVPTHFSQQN

B1: G3A4 (structured_DNA)
DNA: AAAAAAGGGAAAAGGGAAAAGGGAAAAGGGAAAAAAAAAA
For the molecule B1, the binding result (label: 5'-FAM, G4) is listed as “no binding”.

B2: T1 (dsDNA)
DNA 1: GATCTTTAGTTAACTTCCTCTCTGTCTGCAGGCCACTCCAGATC
DNA 2: GATCTGGAGTGGCCTGCAGACAGAGAGGAAGTTAACTAAAGATC
In the case of B2, the binding result under setting [1] is given as “no binding”.

B3: GC-rich (dsDNA)
DNA 1: GCGGCCCGCGCCCGCCGCCCCGCCGCGGCCCGCGCGGCCCGCGC
DNA 2: GCGCGGGCCGCGCGGGCCGCGGCGGGGCGGCGGGCGCGGGCCGC
For the molecule B3, the binding result under setting [1] is given as “no binding”.

B4: AT-rich (dsDNA)
DNA 1: ATAATTTATATTTATTATTTTATTATAATTTATATAATTTATAT
DNA 2: ATATAAATTATATAAATTATAATAAAATAATAAATATAAATTAT
Regarding B4, under setting [1], the binding result is “no binding”.
